We go through 15 molecules from patent US20230129812A1, “COMPOSITIONS AND METHODS FOR TREATING PULMONARY HYPERTENSION” (Acceleron Pharma Inc., priority 2020, published 2023).

Assay [1] concerns the target T1, GDF11 (Homo sapiens, UniProt O95390).
T1 sequence (O95390 299-407): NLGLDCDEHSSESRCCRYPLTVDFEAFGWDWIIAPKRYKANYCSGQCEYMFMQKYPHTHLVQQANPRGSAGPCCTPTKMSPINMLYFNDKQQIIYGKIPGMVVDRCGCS
Nature of the assay: A-204 reporter gene assay, pGL3(CAGA)12 luciferase. The format is cell-based. The settings on record: Table 9; cell-based A-204 assay. From the text:
(§1) An A-204 reporter gene assay was used to evaluate the effects of ActRIIB-Fc proteins and ActRIIB variant Fc fusion polypeptides on signaling by GDF-11 and activin A. Cell line: human rhabdomyosarcoma (derived from muscle). Reporter vector: pGL3(CAGA)12 (described in Dennler et al, 1998, EMBO 17: 3091-3100). The CAGA12 motif is present in TGF-beta responsive genes (e.g., PAI-1 gene), so this vector is of general use for factors signaling through SMADs.
(§2) Day 1: Split A-204 cells into 48-well plate.
(§3) Day 2: A-204 cells transfected with 10 ug pGL3(CAGA)12 or pGL3(CAGA)12(10 ug)+pRLCMV (1 pg) and Fugene.
(§4) Day 3: Add factors (diluted into medium+0.1% BSA). Inhibitors need to be preincubated with factors for 1 hr before adding to cells. Six hrs later, cells were rinsed with PBS and lysed.
(§5) This is followed by a luciferase assay.
(§6) Activity of ActRIIB-Fc proteins and ActRIIB variant Fc fusion polypeptides was tested in a cell-based assay as described above. Some variants were tested in different C-terminal truncation constructs. As discussed above, truncations of five or fifteen amino acids caused reduction in activity. […]
In general terms: In a reporter assay the amount or activity of a reporter protein is the signal.

A further assay addresses T2, activin A (Homo sapiens, UniProt P08476).
T2 sequence (P08476 311-426): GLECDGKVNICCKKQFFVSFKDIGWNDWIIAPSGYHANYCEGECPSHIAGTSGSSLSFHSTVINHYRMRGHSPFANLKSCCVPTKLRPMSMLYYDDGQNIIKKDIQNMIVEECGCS
Kind of assay: A-204 reporter gene assay, pGL3(CAGA)12 luciferase. The format is cell-based. As to conditions: Table 9; cell-based A-204 assay.
Source text: as §1, §2, §3, §4, §5, §6

The next assay addresses T3, ActA (Homo sapiens, UniProt P08476).
T3 sequence (P08476 311-426): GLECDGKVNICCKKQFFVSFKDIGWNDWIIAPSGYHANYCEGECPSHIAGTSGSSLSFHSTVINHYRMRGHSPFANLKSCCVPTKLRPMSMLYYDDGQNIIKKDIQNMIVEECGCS
Also on record: key to ActA binding relative to WT: *: No observed binding; −−: <⅕ WT binding; −: ~½ WT binding; +: WT; ++: <2x increased binding; +++: ~5x increased binding; ++++: ~10x increased binding; +++++: ~40x increased binding. As to conditions: Table 11, reproduced from WO2006/012627; cited from earlier work.

Assay [2] concerns the target T1, GDF11. Also on record: key: *: No observed binding; −−: <⅕ WT binding; −: ~½ WT binding; +: WT; ++: <2x increased binding; +++: ~5x increased binding; ++++: ~10x increased binding; +++++: ~40x increased binding. As to conditions: Table 11, reproduced from WO2006/012627; cited from earlier work.

B1: A64 20-134: ActRIIB-Fc with alanine at position 64, amino acids 20-134 of SEQ ID NO:1 (protein)
chain: GRGEAETRECIYYNANWELERTNQSGLERCEGEQDKRLHCYASWANSSGTIELVKKGCWLDDFNCYDRQECVATEENPQVYFCCCEGNFCNERFTHLPEAGGPEVTYEPPPTAPT
modifications: Fc fusion partner not cited
As to B1, the “GDF11 Inhibition Activity” value with GDF11 [1] is “+ (Poor activity (roughly 1 × 10^−6 KI))”. Moreover, in the assay with activin A, the “Activin Inhibition Activity” value was “+ (Poor activity (roughly 1 × 10^−6 KI))”.

B2: R64 L79P 20-134: ActRIIB-Fc variation R64 L79P, amino acids 20-134 of SEQ ID NO:1 (protein)
chain: GRGEAETRECIYYNANWELERTNQSGLERCEGEQDKRLHCYASWRNSSGTIELVKKGCWPDDFNCYDRQECVATEENPQVYFCCCEGNFCNERFTHLPEAGGPEVTYEPPPTAPT
modifications: Fc fusion partner not cited
As to B2, the “GDF11 Inhibition Activity” value in the assay with GDF11 [1] is recorded as “+ (Poor activity (roughly 1 × 10^−6 KI))”. For the same molecule, the “Activin Inhibition Activity” value in the assay with activin A was “+ (Poor activity (roughly 1 × 10^−6 KI))”.

B3: R64 L79P K74A 20-134: ActRIIB-Fc variation R64 L79P K74A, amino acids 20-134 of SEQ ID NO:1 (protein)
chain: GRGEAETRECIYYNANWELERTNQSGLERCEGEQDKRLHCYASWRNSSGTIELVAKGCWPDDFNCYDRQECVATEENPQVYFCCCEGNFCNERFTHLPEAGGPEVTYEPPPTAPT
modifications: Fc fusion partner not cited
On to B3, for which the “GDF11 Inhibition Activity” value with GDF11 [1] is “+ (Poor activity (roughly 1 × 10^−6 KI))”. Moreover, the “Activin Inhibition Activity” value with activin A is recorded as “+ (Poor activity (roughly 1 × 10^−6 KI))”.

B4: R64 20-129: ActRIIB-Fc R64, amino acids 20-129 of SEQ ID NO:1 (protein)
chain: GRGEAETRECIYYNANWELERTNQSGLERCEGEQDKRLHCYASWRNSSGTIELVKKGCWLDDFNCYDRQECVATEENPQVYFCCCEGNFCNERFTHLPEAGGPEVTYEPP
modifications: Fc fusion partner not cited
On to B4, for which, in the assay with GDF11 [1], the “GDF11 Inhibition Activity” value was “+++ (Good (wild-type) activity (roughly 1 × 10^−8 KI))”. In the assay with activin A, the “Activin Inhibition Activity” value is given as “+++ (Good (wild-type) activity (roughly 1 × 10^−8 KI))”.

B5: R64 A24N 20-119: ActRIIB-Fc variation R64 A24N, amino acids 20-119 of SEQ ID NO:1 (protein)
chain: GRGENETRECIYYNANWELERTNQSGLERCEGEQDKRLHCYASWRNSSGTIELVKKGCWLDDFNCYDRQECVATEENPQVYFCCCEGNFCNERFTHLPEA
modifications: Fc fusion partner not cited
Turning to B5, the “GDF11 Inhibition Activity” value in the assay with GDF11 [1] is listed as “++ (Moderate activity (roughly 1 × 10^−7 KI))”. Also, the “Activin Inhibition Activity” value with activin A is listed as “++ (Moderate activity (roughly 1 × 10^−7 KI))”.

B6: R64 A24N K74A 20-119: ActRIIB-Fc variation R64 A24N K74A, amino acids 20-119 of SEQ ID NO:1 (protein)
chain: GRGENETRECIYYNANWELERTNQSGLERCEGEQDKRLHCYASWRNSSGTIELVAKGCWLDDFNCYDRQECVATEENPQVYFCCCEGNFCNERFTHLPEA
modifications: Fc fusion partner not cited
On to B6, for which the “GDF11 Inhibition Activity” value with GDF11 [1] is listed as “+ (Poor activity (roughly 1 × 10^−6 KI))”. In addition, the “Activin Inhibition Activity” value with activin A is reported as “+ (Poor activity (roughly 1 × 10^−6 KI))”.

B7: D80K: soluble ActRIIB-Fc variant, as reported in WO2006/012627 (protein)
chain: SGRGEAETRECIYYNANWELERTNQSGLERCEGEQDKRLHCYASWANSSGTIELVKKGCWLKDFNCYDRQECVATEENPQVYFCCCEGNFCNERFTHLPEA
modifications: left off: a dimerising Fc or GST
In the case of B7, in the assay with ActA, the “ActA binding relative to WT” value was “*”. Further, the “GDF11 binding relative to WT” value in the assay with GDF11 [2] is on record as “*”.

B8: F82A: soluble ActRIIB-Fc variant, as reported in WO2006/012627 (protein)
chain: SGRGEAETRECIYYNANWELERTNQSGLERCEGEQDKRLHCYASWANSSGTIELVKKGCWLDDANCYDRQECVATEENPQVYFCCCEGNFCNERFTHLPEA
modifications: left off: a dimerising Fc or GST
On to B8, for which the “ActA binding relative to WT” value with ActA was “++ (<2x increased binding)”. Also, the “GDF11 binding relative to WT” value in the assay with GDF11 [2] was “− (~½ WT binding)”.

B9: D80M: soluble ActRIIB-Fc variant, as reported in WO2006/012627 (protein)
chain: SGRGEAETRECIYYNANWELERTNQSGLERCEGEQDKRLHCYASWANSSGTIELVKKGCWLMDFNCYDRQECVATEENPQVYFCCCEGNFCNERFTHLPEA
modifications: left off: a dimerising Fc or GST
For B9, in the assay with ActA, the “ActA binding relative to WT” value is “*”. The “GDF11 binding relative to WT” value with GDF11 [2] is “*”.

B10: D80G: soluble ActRIIB-Fc variant, as reported in WO2006/012627 (protein)
chain: SGRGEAETRECIYYNANWELERTNQSGLERCEGEQDKRLHCYASWANSSGTIELVKKGCWLGDFNCYDRQECVATEENPQVYFCCCEGNFCNERFTHLPEA
modifications: left off: a dimerising Fc or GST
With B10, the “ActA binding relative to WT” value with ActA is recorded as “*”. Moreover, the “GDF11 binding relative to WT” value with GDF11 [2] was “*”.

B11: D80A: soluble ActRIIB-Fc variant, as reported in WO2006/012627 (protein)
chain: SGRGEAETRECIYYNANWELERTNQSGLERCEGEQDKRLHCYASWANSSGTIELVKKGCWLADFNCYDRQECVATEENPQVYFCCCEGNFCNERFTHLPEA
modifications: left off: a dimerising Fc or GST
With B11, the “ActA binding relative to WT” value with ActA is recorded as “*”. Further, the “GDF11 binding relative to WT” value with GDF11 [2] is “*”.

B12: D80R: soluble ActRIIB-Fc variant, as reported in WO2006/012627 (protein)
chain: SGRGEAETRECIYYNANWELERTNQSGLERCEGEQDKRLHCYASWANSSGTIELVKKGCWLRDFNCYDRQECVATEENPQVYFCCCEGNFCNERFTHLPEA
modifications: left off: a dimerising Fc or GST
Take B12: in the assay with ActA, the “ActA binding relative to WT” value is given as “*”. Moreover, the “GDF11 binding relative to WT” value in the assay with GDF11 [2] is “*”.

B13: D80F: soluble ActRIIB-Fc variant, as reported in WO2006/012627 (protein)
chain: SGRGEAETRECIYYNANWELERTNQSGLERCEGEQDKRLHCYASWANSSGTIELVKKGCWLFDFNCYDRQECVATEENPQVYFCCCEGNFCNERFTHLPEA
modifications: left off: a dimerising Fc or GST
Take B13: the “ActA binding relative to WT” value with ActA is reported as “*”. In addition, the “GDF11 binding relative to WT” value with GDF11 [2] is “*”.

B14: WT (64A): soluble ActRIIB-Fc, wild type with 64A, as reported in WO2006/012627 (protein)
chain: SGRGEAETRECIYYNANWELERTNQSGLERCEGEQDKRLHCYASWANSSGTIELVKKGCWLDDFNCYDRQECVATEENPQVYFCCCEGNFCNERFTHLPEA
modifications: left off: a dimerising Fc or GST
Turning to B14, the “ActA binding relative to WT” value in the assay with ActA was “(+)”. In addition, the “GDF11 binding relative to WT” value in the assay with GDF11 [2] is listed as “(+)”.

B15: D80N: soluble ActRIIB-Fc variant, as reported in WO2006/012627 (protein)
chain: SGRGEAETRECIYYNANWELERTNQSGLERCEGEQDKRLHCYASWANSSGTIELVKKGCWLNDFNCYDRQECVATEENPQVYFCCCEGNFCNERFTHLPEA
modifications: left off: a dimerising Fc or GST
On to B15, for which the “ActA binding relative to WT” value with ActA was “*”. In addition, the “GDF11 binding relative to WT” value with GDF11 [2] was “*”.
